We go through ten molecules from patent publication US20160053277A1, “Compositions Having Dicamba Decarboxylase Activity and Methods of Use” (PIONEER HI-BRED INTERNATIONAL, INC., priority 2013, published 2016).

Assay [1] in a line: Saturation mutagenesis of SEQ ID NO:109: dicamba decarboxylation activity of point mutants (carbon dioxide released). The conditions noted are these: decarboxylation activity (carbon dioxide released) of point mutant compared with unmutated backbone protein; backbone SEQ ID NO: 109.
Assay [2] in a line: Shuffled variant libraries: 14CO2 capturing assay in 384-well format. The conditions noted are these: decarboxylation activity (carbon dioxide released) compared with unmutated backbone protein SEQ ID NO 133 (DDEC0201).

B1: 252 (protein)
chain: MAQGKVALEEHFAIPETLQDSAGFVPGDYWKELQHRLLDIQDTRLRLMDAHGIGTMILSLAAPGVQAIPDRRKAIEIARRANDFLAEECAKRPDRFLAFAALPLQDVDAASEELQRCVNDLGFVGALVNGFSQEGDGQTPLYYDLPQYRPFWGEVEKLDVPFYLHPRNPLPQDSRIYDGHPWLLGPTWAFAQETAVHALRLMASGLFDEHPRLNIILGHMGEGLPYMMYRIDHRIAWVKLPPRYPAKRRFMDYFNENFHITTSGNFRTQTLIDAILEIGADRILFSTDWPFENIDHAADWFNATSIAEADRVKIGRTNARRLFKLDGA
modifications: Dicamba decarboxylase variant
Regarding B1, the figures for the “Fold Activity” value in assay [1] and in assay [2] were 0.7 and 0.9, respectively.

B2: 209 (protein)
chain: MAQGKVALEEHFAIPETLNDSAGFVPGDYWKELQHRLLDIQDTRLKLMDAHGIETMILSLAAPAVQAIPDRRKAIEIARRANDFLAEECAKRPDRFLAFAALPLQDPDAATEELQRTVNDLGFVGALVNGFSVEGDGQTPLYYDLPQYRPFWGEVEKLDVPFYLHPRNPLPQDSRIYDGHPWLLGPTWAFAQETAVHALRLMASGLFDEHPRLNIILGHMGEGLPYMMYRIDHRIAWVHEPPRYPAKRRFMDYFNENFHITTSGNFRTQTLIDAILEIGADRILFSTDWPFENIDHAADWFNATSIAEADRVKIGRTNARRLFKLDGD
modifications: Dicamba decarboxylase variant
As for B2, the “Fold Activity” value in assay [1] was found to be 1.6; in assay [2], 1.3.

B3: 250 (protein)
chain: MAQGKVALEEHFAIPETLQDSAGFVPGDYWKELQHRLLDIQDTRLKLMDAHGIETMILSLAAPAVQAIPDRRKAIEIARRANDMLAEECAKRPDRFLAFAALPLQDPDAATEELQRCVNDLGFVGALVNGFSQEGDGQTPLYYDLPQYRPFWGEVEKLDVPFYLHPRNPLPQDSRIYDGHPWLLGPTWAFAQETAVHALRLMASGLFDEHPRLNIILGHMGEGLPYMMYRIDHRIAWVHEPPRYPAKRRFMDYFNENFHITTSGNFRTQTLIDAILEIGADRILFSTDWPFENIDHAADWFNATSIAEADRVKIGRTNARRLFKLDGD
modifications: Dicamba decarboxylase variant
Turning to B3, the “Fold Activity” value is 0.7 in assay [1] and 0.8 in assay [2].

B4: 248 (protein)
chain: MAQGKVALEEHFAIPETLQDSAGFVPSEYLKELQHRLLDIQDTRLKLMDAHGIETMILSLAAPAVQAIPDRRKAIEIARRANDFLAEECAKRPDRFLAFAALPLQDPDAATEELQRTVNTLGFVGALVNGFSVEGDGQTPLYYDLPQYRPFWGEVEKLDVPFYLHPRNPLPQDSRIYDGHPWLLGPTWAFAQETAVHALRLMASGLFDEHPRLNIILGHMGEGLPYMMYRIDHRIAWVHEPPRYPAKRRFMDYFNENFHITTSGNFRTQTLIDAILEIGADRILFSTDWPFENIDHAADWFNATSIAEADRVKIGRTNARRLFKLDLD
modifications: Dicamba decarboxylase variant
Regarding B4, the “Fold Activity” value in assay [1] turned out to be 2.3; in assay [2] it was 1.5.

B5: 249 (protein)
chain: MAQGKVALEEHFAIPETLQDSAGFVPGDYWKELQHRLLDIQDTRLKLMDAHRIETMILSLAAPAVQAIPDRRKAIEIARRANDILAEECAKRPDRFLAFAALPMQDVDAATEELQRCVNDLGFVGALVNGFSQEGDGQTPLYYDLPQYRPFWGEVEKLDVPFYLHPRNPLPQDSRIYDGHPWLLGPTWAFAQETAVHALRLMASGLFDEHPRLNIILGHMGEGLPYMMYRIDHRIAWVHQPPRYPAKRRFMDYFNENFHITTSGNFRTQTLIDAILEIGADRILFSTDWPFENIDHAADWFNATSIAEADRVKIGRTNARRLFKLDGD
modifications: Dicamba decarboxylase variant
On to B5, for which the “Fold Activity” value in assay [1] came out at 2.6; in assay [2], 0.9.

B6: 251 (protein)
chain: MAQGKVALEEHFAIPETLQDSAGFVPGDYWKELQHRLLDIQDTRLKLMDAHGIDTMILSLAAPGVQAIPDRRKAIEIARRANDILAEECAKRPDRFLAFAALPLQDPDAATEELQRCVNDLGFVGALVNGFSQEGDGQTPLYYDLPQYRPFWGEVEKLDVPFYLHPRNPLPQDSRIYDGHPWLLGPTWAFAQETAVHALRLMASGLFDEHPRLNIILGHMGEGLPYMMYRIDHRIAWVQEPPRYPAKRRFMDYFNENFHITTSGNFRTQTLIDAILEIGADRILFSTDWPFENIDHAADWFNATSIAEADRVKIGRTNARRLFKLDLD
modifications: Dicamba decarboxylase variant
For B6, the “Fold Activity” value is 1 in assay [1] and 1.2 in assay [2].

B7: 255 (protein)
chain: MAQGKVALEEHFAIPETLQDSAGFVPGDYWKELQHRLLDIQDTRLRLMDAHGIETMILSLAAVGVQAIPDRRKAIEIARRANDFLAEECAKRPDRFLAFAALPLQDPDAATEELQRCVNDLGFVGALVNGFSQEGDGQTPLYYDLPQYRPFWGEVEKLDVPFYLHPRNPLPQDSRIYDGHPWLLGPTWAFAQETAVHALRLMASGLFDEHPRLNIILGHMGEGLPYMMYRIDHRIAWVHPPPRYPAKRRSMDYFNENFHITTSGNFRTQTLIDAILEIGADRILFSTDWPFENIDHAADWFNATSIAEADRVKIGRTNARRLFKLDGD
modifications: Dicamba decarboxylase variant
For B7, the figures for the “Fold Activity” value in assay [1] and in assay [2] were 1.1 and 1.0, respectively.

B8: 253 (protein)
chain: MAQGKVALEEHFAIPETLQDSAGFVPGDYWKELQHRLLDIQDTRLKLMDAHGIETMILSLAAPAVQAIPDRVKAIEIARRANDFLAEECAKRPDRFLAFAALPLQDPDAATEELQRCVNDLGFVGALVNGFSQEGDGQTPLYYDLPQYRPFWGEVEKLDVPFYLHPRNPLPQDSRIYDGHPWLLGPTWAFAQETAVHALRLMASGLFDEHPRLNIILGHMGEGLPYMMYRIDHRIAWVKLPPRYPAKRRFMDYFNENFHITTSGNFRTQTLIDAILEIGADRILFSTDWPFENIDHAADWFNATSIAEADRVKIGRTNARRLFKLDGD
modifications: Dicamba decarboxylase variant
In the case of B8, the figures for the “Fold Activity” value in assay [1] and in assay [2] were 0.9 and 1.7, respectively.

B9: 210 (protein)
chain: MAQGKVALEEHFAIPETLQDSAGFVPGDYWKELQHRLLDIQDTRLKLMDAHGIGTMILSLAAPAVQAIPDRRKAIEIARRANDFLAEECAKRPDRFLAFAALPLQDPDAATEELQRCVNDLGFVGALVNGFSVEGDGQTPLYYDLPQYRPFWGEVEKLDVPFYLHPRNPLPQDSRIYDGHPWLLGPTWAFAQETAVHALRLMASGLFDEHPRLNIILGHMGEGLPYMMYRIDHRIAWVKLPPRYPAKRRFMDYFNENFHITTSGNFRTQTLIDAILEIGADRILFSTDWPFENIDHAADWFNATSIAEADRVKIGRTNARRLFKLDGD
modifications: Dicamba decarboxylase variant
As for B9, the “Fold Activity” value amounted to 1.8 in assay [1] and 1.3 in assay [2].

B10: 254 (protein)
chain: MAQGKVALEEHFAIPETLQDSAGFVPGDYWKELQHRLLDIQDTRLKLMDAHGIETMILSLAAPAVQAIPDRRQAIEIARRANDFLAEECAKRPDRFLAFAALPLQDPDAASEELQRCVNDLGFVGALVNGFSVEGDGQTPLYYDLPQYRPFWGEVEKLDVPFYLHPRNPLPQDSRIYDGHPWLLGPTWAFAQETAVHALRLMASGLFDEHPRLNIILGHLGEGLPYMMYRIDHRIAWVHPPPRYPAKRRFMDYFNENFHITTSGNFRTQTLIDAILEIGADRILFSTDWPFENIDHAADWFNATSIAEADRVKIGRTNARRLFKLDGA
modifications: Dicamba decarboxylase variant
As for B10, the figures for the “Fold Activity” value in assay [1] and in assay [2] were 1.9 and 1.2, respectively.
